{"source": "patent US20200231681A1", "about": "(CHONG KUN DANG PHARMACEUTICAL, published 2020)", "binders": {"B1": {"name": "hu8C4 (IgG1 humanized antibody having a hinge region of SEQ ID NO: 38 in hu8C4-1) (antibody, V domains shown)", "VH": "EVQLVESGGGLVQPGGSLRLSCAASGYTFSDYYINWVRQAPGKGLEWIGEIFPGSGNTHFSARFKGRATLSADKSKNTAYLQMNSLRAEDTAVYYCAGGDYGFLYWGQGTLVTVSS", "VL": "DIQMTQSPSSLSASVGDRVTITCGASENIYGALNWYQQKPGKAPKLLIYGATNLADGVPSRFSGSGSGRDFTFTISSLQPEDIATYYCQNVLSSPYTFGQGTKVEIK", "notes": "light chain detected with anti-human kappa; also called anti-c-Met antibody hu8C4; hu8C4 monospecific antibody"}}, "key": {"[1]": {"biological_target": "T1, human PDGF Rβ Fc chimera (R&D systems, 385-PR_CF) (human, UniProt P09619 33-530)", "T1 sequence (P09619 33-530, change not shown)": "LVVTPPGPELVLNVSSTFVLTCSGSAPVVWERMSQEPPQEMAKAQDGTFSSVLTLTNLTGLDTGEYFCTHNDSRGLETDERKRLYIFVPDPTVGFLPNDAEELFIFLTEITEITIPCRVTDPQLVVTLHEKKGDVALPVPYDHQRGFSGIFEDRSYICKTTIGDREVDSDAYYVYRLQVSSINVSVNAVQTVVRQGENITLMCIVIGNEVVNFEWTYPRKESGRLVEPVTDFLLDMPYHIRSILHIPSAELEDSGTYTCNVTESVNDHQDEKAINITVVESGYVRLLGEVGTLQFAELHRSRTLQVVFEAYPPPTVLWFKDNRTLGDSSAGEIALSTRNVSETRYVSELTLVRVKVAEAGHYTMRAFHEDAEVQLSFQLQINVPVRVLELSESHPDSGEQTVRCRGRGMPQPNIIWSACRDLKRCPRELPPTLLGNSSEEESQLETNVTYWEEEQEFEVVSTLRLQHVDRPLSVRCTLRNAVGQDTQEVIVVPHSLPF", "assay": "indirect ELISA, hu8C4 at 0.010 nM", "description": "(§1) Each antigen was diluted in 0.05 M carbonate-bicarbonate (Sigma, C3041) buffer at a concentration of 1 μg/ml, after which the resulting antigen was added into each well of a 96-well plate (Corning, #2592), such that the resulting plate was coated at 4° C. overnight. The plate was washed once with TBS-T, after which TBS-T containing 4%—skim milk was added by 200 μl into each well of the resulting plate in order to inhibit a non-specific binding, such that the resulting plate was reacted at 37° C. for 1 hour. Then, the plate was washed once with TBS-T buffer, after which a primary antibody was sequentially diluted in TBS-T buffer containing 2%—skim milk from a highest concentration of 30 nM to 0.002 nM, such that the resulting antibody was added by 100 μk into each well, thus being reacted at 37° C. for 2 hours. After being washed three times with TBS-T buffer, an anti-human kappa light chains-peroxidase (Sigma, A7164) was diluted at a ratio of 1:5000 as a secondary antibody, after which the resulting antibody was added by 100 μl into each well, thus being reacted at 37° C. for 1 hour. Then, after being washed three times with TBS-T buffer, TMB solution (Sigma, T4444) was added by 100 μl into each well to carry out an color developing reaction, after which 2 N […] solution was added by 50 μl into each well to stop the reaction. An optical density was measured based on a value at a wavelength of 450 nm by using a microplate reader and a reference wavelength of 570 nm was used."}, "[2]": {"biological_target": "T2, human VEGF R2 Fc chimera (R&D systems, 357-KD_CF) (human, UniProt P35968 20-764)", "T2 construct": "also called VEGFR R2", "T2 sequence (P35968 20-764, change not shown)": "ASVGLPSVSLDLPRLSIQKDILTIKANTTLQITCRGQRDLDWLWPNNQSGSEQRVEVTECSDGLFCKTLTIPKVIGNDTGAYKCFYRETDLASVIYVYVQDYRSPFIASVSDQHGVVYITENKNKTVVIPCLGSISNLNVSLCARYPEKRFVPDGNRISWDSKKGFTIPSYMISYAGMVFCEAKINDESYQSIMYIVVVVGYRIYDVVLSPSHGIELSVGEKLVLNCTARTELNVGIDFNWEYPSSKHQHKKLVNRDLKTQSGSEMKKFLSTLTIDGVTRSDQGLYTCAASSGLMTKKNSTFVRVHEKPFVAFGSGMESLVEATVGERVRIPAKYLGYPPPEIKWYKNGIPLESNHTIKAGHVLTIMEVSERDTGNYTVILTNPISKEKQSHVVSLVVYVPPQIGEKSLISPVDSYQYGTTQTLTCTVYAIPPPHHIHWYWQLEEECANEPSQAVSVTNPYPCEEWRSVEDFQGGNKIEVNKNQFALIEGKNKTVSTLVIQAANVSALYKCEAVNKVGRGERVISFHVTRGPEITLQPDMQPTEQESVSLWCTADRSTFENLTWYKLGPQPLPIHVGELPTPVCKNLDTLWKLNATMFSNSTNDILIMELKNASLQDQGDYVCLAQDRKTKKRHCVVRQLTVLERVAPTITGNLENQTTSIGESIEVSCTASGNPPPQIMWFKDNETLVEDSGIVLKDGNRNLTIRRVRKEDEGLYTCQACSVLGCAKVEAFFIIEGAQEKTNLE", "assay": "indirect ELISA, hu8C4 at 0.010 nM", "description": "as §1"}, "[3]": {"biological_target": "T3, human MSP R/Ron (R&D systems, 1947-MS-050) (human, UniProt Q04912 25-571, limits assumed)", "assay": "indirect ELISA, hu8C4 at 0.010 nM", "description": "as §1"}, "[4]": {"biological_target": "T4, human IGF-I R (R&D systems, 391-GR-050) (human, UniProt P08069 31-932)", "assay": "indirect ELISA, hu8C4 at 0.010 nM", "description": "as §1"}, "[5]": {"biological_target": "T1, human PDGF Rβ Fc chimera (R&D systems, …)", "assay": "indirect ELISA, hu8C4 at 0.240 nM", "description": "as §1"}, "[6]": {"biological_target": "T2, human VEGF R2 Fc chimera (R&D systems, …)", "assay": "indirect ELISA, hu8C4 at 0.240 nM", "description": "as §1"}, "[7]": {"biological_target": "T4, human IGF-I R (R&D systems, 391-GR-050)", "assay": "indirect ELISA, hu8C4 at 0.240 nM", "description": "as §1"}, "[8]": {"biological_target": "T5, cynomolgus monkey c-Met ECD (SiNo. Biological, 90304-CO8H) (cynomolgus monkey, UniProt A0A2K5UM36 25-932)", "T5 construct": "not shown: The vendor's tag", "T5 sequence (A0A2K5UM36 entry or part of it limits assumed)": "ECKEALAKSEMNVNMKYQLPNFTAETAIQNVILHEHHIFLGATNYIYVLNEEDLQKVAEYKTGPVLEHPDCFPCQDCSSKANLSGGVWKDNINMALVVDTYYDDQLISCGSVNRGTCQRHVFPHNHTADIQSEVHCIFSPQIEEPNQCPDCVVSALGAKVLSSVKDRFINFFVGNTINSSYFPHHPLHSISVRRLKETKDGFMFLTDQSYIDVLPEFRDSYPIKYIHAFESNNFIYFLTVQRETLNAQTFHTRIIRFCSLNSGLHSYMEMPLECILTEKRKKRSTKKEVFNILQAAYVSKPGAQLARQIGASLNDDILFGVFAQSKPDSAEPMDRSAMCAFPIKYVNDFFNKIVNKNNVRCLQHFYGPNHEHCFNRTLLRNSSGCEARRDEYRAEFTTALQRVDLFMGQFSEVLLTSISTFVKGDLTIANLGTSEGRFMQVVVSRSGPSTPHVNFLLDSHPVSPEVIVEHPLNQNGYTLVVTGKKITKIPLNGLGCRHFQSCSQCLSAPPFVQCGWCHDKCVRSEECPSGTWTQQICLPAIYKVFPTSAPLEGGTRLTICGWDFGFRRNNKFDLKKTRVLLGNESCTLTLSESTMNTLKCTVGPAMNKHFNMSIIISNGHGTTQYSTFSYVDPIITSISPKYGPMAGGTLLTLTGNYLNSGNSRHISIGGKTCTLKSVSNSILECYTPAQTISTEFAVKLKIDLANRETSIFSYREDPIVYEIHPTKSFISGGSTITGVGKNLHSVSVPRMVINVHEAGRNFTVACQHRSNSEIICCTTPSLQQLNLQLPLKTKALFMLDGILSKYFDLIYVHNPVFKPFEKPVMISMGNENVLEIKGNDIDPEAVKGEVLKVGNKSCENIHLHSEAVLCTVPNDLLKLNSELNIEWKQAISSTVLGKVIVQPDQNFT", "assay": "SPR (BIAcore), antibody captured by anti-human IgG Fc, antigen as analyte, 1:1 Langmuir", "description": "(§2) The antibodies were diluted in HBS-EP buffer (0.01 M HEPES pH 7.4, 0.15 M NaCl, 3 mM EDTA and 0.005% (v/v) Surfactant P20) at a concentration of 1-2 μg/ml, after which the resulting antibodies were injected into a CM5 chip with an anti-human Ig Fc fixed thereto at a flow rate of 30 μl/min for 10-120 seconds, and then captured in a range of 150-200 RU. Each antigen was used after being diluted at 10, 5, 2.5, 1.25, 0.625, 0.3125 and 0.15625 nM, after which the resulting antigens were sequentially injected from a lower concentration. Then, the resulting antigens were injected at a flow rate of 30 μl/min for 5 minutes to carry out binding, after which a running buffer was injected thereinto for 10-15 minutes to carry out a dissociation. 15 μl of 10 mM Glycine-HCl (pH 1.5) was used to revive the chip."}, "[9]": {"biological_target": "T6, human c-Met ECD (ACROBiosystems, MET-H5227) (human, UniProt P08581 25-932)", "T6 construct": "extracellular domain; Bought protein", "T6 sequence (P08581 25-932)": "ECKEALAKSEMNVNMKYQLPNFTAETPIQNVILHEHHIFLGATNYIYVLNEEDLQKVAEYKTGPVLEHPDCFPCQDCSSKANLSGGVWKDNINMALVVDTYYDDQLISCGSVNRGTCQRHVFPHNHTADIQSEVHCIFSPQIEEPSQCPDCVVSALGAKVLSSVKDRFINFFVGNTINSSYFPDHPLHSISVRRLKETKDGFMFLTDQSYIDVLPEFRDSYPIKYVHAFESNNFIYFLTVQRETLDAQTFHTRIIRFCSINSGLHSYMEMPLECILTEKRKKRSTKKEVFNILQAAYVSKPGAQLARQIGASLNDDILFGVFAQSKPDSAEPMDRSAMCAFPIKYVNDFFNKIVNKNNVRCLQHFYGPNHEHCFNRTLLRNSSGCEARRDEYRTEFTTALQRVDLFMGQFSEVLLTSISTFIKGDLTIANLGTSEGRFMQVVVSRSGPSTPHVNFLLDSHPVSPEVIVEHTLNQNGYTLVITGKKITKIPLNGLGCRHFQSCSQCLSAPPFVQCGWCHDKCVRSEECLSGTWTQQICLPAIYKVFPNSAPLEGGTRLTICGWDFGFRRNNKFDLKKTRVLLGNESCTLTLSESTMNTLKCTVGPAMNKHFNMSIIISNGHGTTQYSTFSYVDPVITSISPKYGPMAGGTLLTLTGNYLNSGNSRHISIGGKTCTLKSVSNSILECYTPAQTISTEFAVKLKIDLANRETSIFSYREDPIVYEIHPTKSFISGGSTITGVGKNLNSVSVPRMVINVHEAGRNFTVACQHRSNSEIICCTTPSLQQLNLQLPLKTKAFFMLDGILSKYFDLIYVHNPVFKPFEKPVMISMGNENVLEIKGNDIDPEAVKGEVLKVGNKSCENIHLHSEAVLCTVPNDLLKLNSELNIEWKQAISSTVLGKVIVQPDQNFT", "assay": "SPR (BIAcore), antibody captured by anti-human IgG Fc, antigen as analyte, 1:1 Langmuir", "description": "as §2"}, "[10]": {"biological_target": "T1, human PDGF Rβ Fc chimera (R&D systems, …)", "assay": "indirect ELISA, hu8C4 at 0.048 nM", "description": "as §1"}, "[11]": {"biological_target": "T3, human MSP R/Ron (R&D systems, …)", "assay": "indirect ELISA, hu8C4 at 0.048 nM", "description": "as §1"}, "[12]": {"biological_target": "T7, human c-Met Fc chimera (R&D systems, 358-MT_CF) (human, UniProt P08581 25-932)", "T7 construct": "extracellular domain; also called human c-Met (R&D Systems, 358-MT)", "T7 sequence (P08581 25-932, change not shown)": "as the sequence (P08581 25-932) above", "assay": "indirect ELISA, hu8C4 at 0.048 nM", "description": "as §1"}, "[13]": {"biological_target": "T4, human IGF-I R (R&D systems, 391-GR-050)", "assay": "indirect ELISA, hu8C4 at 0.048 nM", "description": "as §1"}, "[14]": {"biological_target": "T8, mouse c-Met (SiNo. Biological Inc, 50622-M08H) (mouse, UniProt P16056 25-931)", "T8 construct": "extracellular domain", "T8 sequence (P16056 25-931, stated change not applied)": "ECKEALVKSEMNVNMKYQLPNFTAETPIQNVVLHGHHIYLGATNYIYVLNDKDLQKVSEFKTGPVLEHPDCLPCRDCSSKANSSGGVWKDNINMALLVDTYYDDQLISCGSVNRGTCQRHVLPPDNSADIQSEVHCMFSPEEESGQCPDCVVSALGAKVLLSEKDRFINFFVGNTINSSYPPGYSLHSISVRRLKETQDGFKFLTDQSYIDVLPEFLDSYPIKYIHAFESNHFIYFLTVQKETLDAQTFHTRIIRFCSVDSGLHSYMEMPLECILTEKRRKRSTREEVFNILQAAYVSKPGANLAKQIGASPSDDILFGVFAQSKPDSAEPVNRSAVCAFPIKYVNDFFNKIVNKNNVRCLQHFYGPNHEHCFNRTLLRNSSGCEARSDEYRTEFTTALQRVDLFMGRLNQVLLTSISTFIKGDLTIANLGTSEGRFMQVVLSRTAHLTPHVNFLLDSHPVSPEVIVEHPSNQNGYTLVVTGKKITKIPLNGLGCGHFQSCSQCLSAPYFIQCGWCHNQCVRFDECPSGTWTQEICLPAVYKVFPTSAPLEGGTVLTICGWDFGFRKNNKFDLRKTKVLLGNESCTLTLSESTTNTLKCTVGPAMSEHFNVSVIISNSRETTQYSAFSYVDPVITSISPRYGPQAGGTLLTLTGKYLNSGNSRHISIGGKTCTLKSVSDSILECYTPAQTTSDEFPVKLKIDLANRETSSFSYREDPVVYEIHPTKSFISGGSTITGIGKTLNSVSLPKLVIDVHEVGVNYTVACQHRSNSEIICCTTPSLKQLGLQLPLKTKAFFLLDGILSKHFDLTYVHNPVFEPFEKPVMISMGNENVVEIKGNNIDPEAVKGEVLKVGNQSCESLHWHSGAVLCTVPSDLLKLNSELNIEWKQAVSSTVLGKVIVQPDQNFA", "assay": "ELISA, antigen coated at 2 µg/ml, antibody 6.4 pM to 100 nM, anti-human IgG F(ab')2-HRP, TMB, O.D. at 450 nm [panel Mouse cMet]", "description": "Particularly, mouse c-Met (SiNo. Biological Inc, 50622-M08H), cynomolgus monkey c-Met (SiNo. Biological Inc, 90304-CO8H), human c-Met (R&D Systems, 358-MT), mouse EGFR (SiNo. Biological Inc, 51091-M08H), cynomolgus monkey EGFR (SiNo. Biological, 90285-008B) and human EGFR (Abcam, 155639) antigens were all divided into a 96-well plate at a concentration of 2 μg/ml, after which the resulting plate was reacted at 4° C. overnight.\nColor development was made by using TMB (Sigma, T4444) solution, wherein its value was measured at an optical density of 450 nm and its ELISA results are shown in FIG. 9."}}}
{"binder": "B1", "values": [{"measurement": "A450 nm-A570 nm", "setting": "[1]", "value": -0.01, "unit": "A450 nm-A570 nm"}, {"measurement": "A450 nm-A570 nm", "setting": "[2]", "value": -0.01, "unit": "A450 nm-A570 nm"}, {"measurement": "A450 nm-A570 nm", "setting": "[3]", "value": 0, "unit": "A450 nm-A570 nm"}, {"measurement": "A450 nm-A570 nm", "setting": "[4]", "value": 0, "unit": "A450 nm-A570 nm"}, {"measurement": "A450 nm-A570 nm", "setting": "[5]", "value": -0.01, "unit": "A450 nm-A570 nm"}, {"measurement": "A450 nm-A570 nm", "setting": "[6]", "value": -0.02, "unit": "A450 nm-A570 nm"}, {"measurement": "A450 nm-A570 nm", "setting": "[7]", "value": 0, "unit": "A450 nm-A570 nm"}, {"measurement": "Kd", "setting": "[8]", "value": 0.462, "unit": "nM"}, {"measurement": "koff", "setting": "[8]", "value": 0.000345, "unit": "s⁻¹"}, {"measurement": "kon", "setting": "[8]", "value": 747000, "unit": "M⁻¹ s⁻¹"}, {"measurement": "Kd", "setting": "[9]", "value": 0.317, "unit": "nM"}, {"measurement": "koff", "setting": "[9]", "value": 0.000215, "unit": "s⁻¹"}, {"measurement": "kon", "setting": "[9]", "value": 677000, "unit": "M⁻¹ s⁻¹"}, {"measurement": "A450 nm-A570 nm", "setting": "[10]", "value": -0.01, "unit": "A450 nm-A570 nm"}, {"measurement": "A450 nm-A570 nm", "setting": "[11]", "value": 0, "unit": "A450 nm-A570 nm"}, {"measurement": "A450 nm-A570 nm", "setting": "[12]", "value": 0.76, "unit": "A450 nm-A570 nm"}, {"measurement": "A450 nm-A570 nm", "setting": "[13]", "value": 0, "unit": "A450 nm-A570 nm"}, {"measurement": "binding result", "setting": "[14]", "value": "no binding (tested: 100 nM)"}]}
